Read-outs that look alike come from different tables or passages of the source.
B1: anti-MIF monoclonal antibody 10B11-3 (antibody, V domains shown)
VH: EVQLQQSGPELVKPGASVRISCKTSGYTITEYTMHWMKQSHEKSLEWIGGITPNTGVLSDNQKFRGKATLTVDKSSNTAYMELRSLTSADSAVYYCARRGNNYYGSSPWFAYWGQGTLVTVSA
VL: DIQMTQSPASLSVSVGETVTITCRASENIYSNLAWYQQKQGKSPQLLVYAATNLADGVPSRFSGSGSGTQYSLNIYSLQPEDFGSYYCQHFWGTPYTFGGGTKLEIKR
notes: Mouse hybridoma antibody from a MIF knockout mouse, purified from ascites; also called Mab 10B11-3; 1OB11-3
B2: anti-MIF monoclonal antibody 29B12-1 (antibody, V domains shown)
VH: EVKLVESGGGSVQPGGSLKLSCATSGFIFSDYYMYWVRQTPEKRLEWVAYISIGSGNTYYPDTVKGRFTISRDIAKNTLYLQMSRLKSEDTAMYYCVRGRLRFLFDYAMDYWGQGTSVTVSS
VL: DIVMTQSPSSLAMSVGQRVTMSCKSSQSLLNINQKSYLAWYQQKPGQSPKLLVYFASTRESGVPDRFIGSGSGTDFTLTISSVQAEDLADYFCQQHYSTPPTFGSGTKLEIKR
B3: anti-MIF monoclonal antibody 22F11-6 (antibody, V domains shown)
VH: EVKLEESGGGLVQPGGSMKLSCAASGFTFGDAWMYWVRQSPEKGLEWVAEIRSKAHNHATYYAESVKGRFTISRDDSKSSVYLQMSSLRAEDTGIYYCTSHHYGSSWYFDVWGAGTTVTVSS
VL: DIQMTQSPASLSASVGETVTITCRASENIYSYLTWFQQKQGKSPQLLVYDAKTLAEGVPSSFSGSGSGTQFSLKIISLQPEHFGSYYCQHHYGRPYTFGGGTKLEIKR
notes: Mouse hybridoma antibody from a MIF knockout mouse, purified from ascites; also called Mab 22F11-6
B4: anti-MIF monoclonal antibody 6B5-5 (antibody, V domains shown)
VH: DVQLQESGPGLVKPSQSLSLTCTVTGSSITSDYAWHWIRQFPGNKLEWMGYISFSGSTGYNPSLKSRFSITRDTSKNQFFLQLNSVTTEDTATYYCAREAYGYDVGYFDYWGQGTTLTVSS
VL: QIVLTQSPAIMSAFPGEKVTITCSASSSVSYMHWFQQKPGTSPKLWIYGTSNLASGVPVRFSGSGSGTSYSLTISRMEAEDAATYYCQQRSSYPWTFGGGTKLEIKR
B5: anti-MIF monoclonal antibody 19B11-7 (antibody, V domains shown)
VH: QIQLVQSGPELKKPGETVKISCKASGYSFRNYGMNWVSQPPGKGLEWMGWINTYTGEPTYADDFKGRFAFSLDTSASTAYLTINNLKNEDTATYFCARSNYGNYFDYWGQGTTLTVSA
VL: NIVLTQSPASLALSLGQRATISCRTSESVDSYASSFMHWYQQKPGQSPKLLIYLASNLESGVPARFSGSGSRTDFTLTIDPVEADDAATYYCQQSNEDPRTFGGGTQLEIKR
notes: Mouse hybridoma antibody from a MIF knockout mouse, purified from ascites
B6: anti-MIF monoclonal antibody 33G7-9 (antibody, V domains shown)
VH: DVQLQESGPDLVKPSQSLSLTCSVTGYSITSGYYWNWIRQFPGNKLEWVGYLSYDGSKSHNPSLRNRISITRDPSKNQFFLKLNSVTTEDTATYYCARGGKIFYGSSYDPFAYWGQGTLVTVSS
VL: DIQMTQSPASLSASVGETVTITCRASENIFNYLSWYQQKQGKSPQLLVYNVKTLTDGVPSRFSGSGSGTQFSLKINSLQPEDFGSYYCQHHYDTPYTFGRGTKLEIKR

Legend:
[1] = target: T1, human macrophage migration inhibitory factor (MIF) (human, UniProt P14174 2-115); experiment: cell-based or functional assay
[2] = target: T1, human macrophage migration inhibitory …; experiment: cell-based or functional assay; remark: listed apart in the source
[3] = target: T1, human macrophage migration inhibitory …; experiment: row 'human MIF Kd < 50 nm'; method not stated
[4] = target: T1, human macrophage migration inhibitory …; experiment: cell-based or functional assay; remark: listed apart in the source
[5] = target: T1, human macrophage migration inhibitory …; experiment: column 'Binds Human MIF'; method not stated
[6] = target: T1, human macrophage migration inhibitory …; experiment: column 'Binds Human MIF'; method not stated; remark: listed apart in the source

T1 sequence (P14174 2-115 limits assumed): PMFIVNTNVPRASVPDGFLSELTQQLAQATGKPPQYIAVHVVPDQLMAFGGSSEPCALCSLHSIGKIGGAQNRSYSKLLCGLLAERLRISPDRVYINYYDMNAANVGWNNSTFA

Binder | % MIF PPT Activity [1] [%] | % MIF PPT Activity [2] [%] | Kd [3] [nM] | % MIF PPt Activity [4] [%] | Kd [5] [nM] | Kd [6] [nM] | MIF Stimulated SRE Transcription (% MIF Activity), 10 µg mab/ml [1] [%] | MIF Stimulated SRE Transcription (% MIF Activity), 10 µg mab/ml [4] [%]
B1 | 136 | 136 | < 0.1 | 136 | < 0.1 | < 0.1 | – | –
B2 | 146 | 146 | – | 146 | – | – | 25 | 25
B3 | 65 | 65 | < 0.1 | 65 | < 0.1 | < 0.1 | 42 | 42
B4 | 82 | 82 | – | 82 | – | – | 36 | 36
B5 | 0 | 0 | – | 0 | < 0.1 | < 0.1 | 29 | 29
B6 | 67 | 67 | – | 67 | – | – | 5 | 5

Reference: patent US7294753 (Biogen, dated 2007)
